Source: the DeepSol protein solubility set

Assay: soluble on expression in E. coli; label from the status in PepcDB or PDB records

Sequence	soluble on expression in E. coli
FLLEIGLEEMPAKYVTSSVLQLEKRVTDWLKDNQIEFKEIKTYSTPRRLTVLVEEMAEEQANRVEEAKGPAKKIALDDEGNWSKAALGFAKSQKVAPEDLTFREIKGVEYIYIKKEVIGEKTTALLPSLEKVVTSMTFPVSMHWGSNDLRYIRPIKWLIAMFGEEIIPFEITGVSTSNTSRGHRFLGKTATINQPSDYPHALLEQFVVVNASERKQAIVEQLRELETMENWQIREDDDLLEEVTNLVEYPTVLAGNFEKEYLELPEEVLITTMKEHQRYFPVFSQEGELLPHFVTVRNGNHENLDTVARGNEKVLRARLSDADFFYQEDLKITIDEAVAKLQNIVFHEKLGTLTEKMERVQKVALMLADYLNWQEEDKQDIIRLTNIYKFDLVTNIVGEFPELQGLMGEKYALLQGEKPAIATAIREHYLPSSAEGVLPQTDLGSLIAIADKLETLIGFFCVNIVPTGSADPFGLRRSAFGAMRIIQANGWDIPMLEVISRIVDMERAEGATELPSADVKKEVQTFLKNRLRVILQGHHIRHDIIDAVIGGDPNV	not soluble
MIYINLYNSNQMTKGILIAGTHSGVGKTTVSMGIMAALKHRQLKVQPYKVGPDYIDPSHHTAICGRPSRNLDTYLMGTEGVRQTVARTSADADIAVVEGVMGLFDGIDSTEVASSAHVAKTLDIPVILVINVHGMSRSAAALLKGYSEFDPEVRVAGVILNQVGSPRHAELVKNSLPGNIPIIGTIPRRKDIEVPSRHLGLYMAHEK	not soluble
MAFEESLVMVSSLSRLSICTSSAYDEAATKNQPDSCVSTSLENFDGAEADGEVSDDGEGKENVRESDSDKETRGFYSLPVTPSRRRRKLTVSGELDANESNKNGSKCSLRRQRREKKKKGVNGECDVGGREGLTVLTRARGGDRSLRMGLQEVKACRDLGFELEVPVPGRISVSTTGSNFDTQTSSGGDSPIATWRISSPGDDPKEVKARLKVWAQAVALASATRQAS	not soluble
MSLKRSSICYRASKPLIASLVMSVWNAVHLSRRFAALPQAFYTPVHPQPLQNVRWGMWNSRLAQQFGLPEAPNDELLLSLSGQQLPADFSPVAMKYAGHQFGVYNPDLGDGRGLLLAEMATKQGEVFDIHLKGAGLTPYSRMGDGRAVLRSSLREYLCSEAMAGLGIATTRALALMSSETPVYREREERGALLVRLAHTHVRFGHFEHFFYTDQHANLKLLADKVIEWHFPDCVQTSKPYAAWFSQVVERTALMIAQWQAYGFNHGVMNTDNMSILGETFDYGPFAFLDDYDPNFICNHSDYQGRYAFDQQPRIGLWNLSALAHALSPLIDKDDLEAALGSYSERLNLHFSRLMRAKLGLATQQEGDGELFADFFALLANNHTDYTRFLRELSCLDRQGNEAVIDLVLDREAAKTWLTRYLERAARELGQEGRPISTRERCQAMRQVNPKYILRNYLAQQAIEFAERGDFEEMQRLATVLASPYAEHPEFERYAKLPPEWGKKLEISCSSEGGSHHHHHH	soluble
MGSDKIHHHHHHMKRKITPELSSKDWKEFCSRFHFDNDKLPLIRAIYTAMLPLVDAFAYYSIKQDLPGVSLAHYAYGLVTLGNGVDELSELYLNHEQLEEAYIADCLSLMLLSNAYEQFAKAVEEESSLYAIELSFLGDEYPLELLPEIFEHVSPDGIHLTGSNMLKPLKTAALIIKLDSQKRKNIKELCNTCANCKNLSCPSRKAPGPKLPHTYGAMQIFNIRH	not soluble
MGSDKIHHHHHHMREKLFWILKKYGVSDHIAKAFLEIPREEFLTKSYPLSYVYEDIVLVSYDDGEEYSTSSQPSLMALFMEWVGLDKGMRVLEIGGGTGYNAAVMSRVVGEKGLVVSVEYSRKICEIAKRNVERLGIENVIFVCGDGYYGVPEFSPYDVIFVTVGVDEVPETWFTQLKEGGRVIVPINLKLSRRQPAFLFKKKDPYLVGNYKLETRFITAGGNLGNLLERNRKLLREFPFNREILLVRSHIFVELVDLLTRRLTEIDGTFYYAGPNGVVEFLDDRMRIYGDAPEIENLLTQWESCGYRSFEYLMLHVGYNAFSHISCSI	not soluble
MAHHHHHHMSGRAGRRGLDRVGVVIAMVDEAVEPETLKQLTGGGADVLNSSFHLTYNMVLNLLRVEDVDPEFMMHRSFAQFQRLRNRPVLEKRAEALTEEIESIHVEHEEVFRQFTLCQELLANRRKQLADILKQPTFLKRFTHSGRLLRIRRAADDVLFNWGICRAFHAKVPNADPKSPSEFSVDVAVICLKANAAKPTSLLPCHVNDFTTSTADLYTLTFDFTDIEGVARFRVNLPAEPDTESGRAQMVQTLSKLHRQYDDKVPLLTAEEMGVDDPQFEKLRVQVERLEAQLAENEFVQNPTKELESDFERFTHRAKLEKELNDIREELNQASRAIFSEELKQMMRVLRRLDYIDKDNVILRKARVACEITTTDENEILLTELLFKGVLNSMETEMIVALMSCLVNVHRTPDGFSLPEEFQQPLKELNEIVSRIATVSIESGVLQEGGVGVERTMPSLMEVTYMWAKGAKFVDIMSKTSAYEGEIVRMMRRLEEQLRQMAGAARSPAIGSMELHDKFLKGIQLIKRDIVFVSSLYL	not soluble
MEIKEVLPCIADPKKLRVIGRVDGNFPAVMPYLARLIPNASYNEKRGWISFKKGQRIITIHEDGFVAMTQIKDEDEAKSILGEIEQKAQEAWEKRNKIDLSKPLEKTVVSPFDVYNYLPKTNCKRCGEQTCMAFAVKLLNGEVDIKACKPLFEDKKYEGLRETLIGMLVAAGYDLEL	soluble
PDVRRDKPVTGEQIEVFANKLGEQWKILAPYLEMKDSEIRQIECDSEDMKMRAKQLLVAWQDQEGVHATPENLINALNKSGLSDLAESLTNDNETNS	soluble
MGSDKIHHHHHHMQVVYHLGAPCTDADQLIMSLLKNRLRLAQAGIFVPVPGRYRAVIRDTARALKGQPAGKEVQEALLDAIVDDAQVDRLVLSDPRFVCINRLVVQGAQIWPMIERAATGLRALFPEAHVEFFIGMRDPATLIPALFKASRFSDFAEFTENMQPHAVAWSETLRRLQLAHPDCRITAWCNEDTPLLWGEILRELAGVGPEGELDGINDLAVSIMEEEGLKRMGQWFGQNPPKTEAQRRRALTAFLERYAKAGEIEETLNLPGWDEALMAEMSQSYDQDMEVIARLPGVTLLVP	not soluble
MRFKVSKLMAYILRHSPWEFGLEPDEEGFVSIEELVNAVRKVYPWVTEEYIREIVERDEKGRYEIRGNKIRARYGHSYPVILRHEEDKESKVLYHGTVRRNLKGIMREGIKPMKRQYVHLSINYEDAYNTGRRHGEDVVVLIIDAECLRNKGYKILKAGKKVRIVKHVPVDCISGILLEHHHHHH	not soluble
MGSDKIHHHHHHMSFRSGVATFAGKSSYWFLHTFLHGGSSLPGKITLKLDPNILRTLGAKYDVIVITGTNGKTLTTALTVSVLHEKYPAILTNPTGSNMEQGIVTTFLNAKNPKTGRPLAVLEVDEANVIKVTHYIEPKAFVFTNIFRDQMDRYGEIYTTYQKILDGVALAPKATIIANGDSPIFNSKELPNPIQYYGFDNEPDTDMKAKPNTDGVLCPVCQHILHYHSLTYSNQGKYFCPNCGFARPELTYRLTALGEQTPTSSHFDVDGHPFTIQVGGTYNIYNALAAYAVGRFMGVAPEQIAHAFTANERVFGRQEVINVGDKRVTIILVKNPVGLDQVLHMIGTDKEQFSFVALLNANYADGIDTSWIWDGDFEQLTALDIPTFITGGERYKDITFRLKVAGVPDDQHIVEPDLEKVVDRITDLPTERVYVLATYTAMLQLRKILATKGYIKEGFGA	not soluble
MAHHHHHHMNFLRRNAANLCKGKVLGKHLNCSVHELTNLNKRKISNITDLGKCGQRYQATHSGSTIGAKRFASSEAQKLSEVVKAEVQHEKSNYEAPDNIKKFLQTSGWKFEEQEGDVNMVLTKNVDGMKIIIDFQLVSPFQAEGENEAQAEMTDFSVTVEKPNKQGGITFYCTTLQNDEKFRYMIGNVKYYKNEEGKNSVSAYNGPEFEDLDDSLQTSLDEWLANLGVDSELCDFIDSCSIDKEQREYMSWLQNISNFIES	not soluble
SIRLPAHLRLQPIYWSRDDVAQWLKWAENEFSLSPIDSNTFEMNGKALLLLTKEDFRYRSPHSGDVLYELLQHILKQRDLEAEAAAAEAAAKA	soluble
